Here are results for four molecules from paper PMC4733052, “Heart of glass anchors Rasip1 at endothelial cell-cell junctions to support vascular integrity” (eLife, 2016).

B1: recombinant His-MBP-fusion Rasip1 central domain (residues 266-550) (protein)
chain: EAFGAADSEGTGAPSWRPQKNRSRAASGGAALASPGPGTGSGAPAGSGGKERSENLSLRRSVSELSLQGRRRRQQERRQQALSMAPGAADAQIGTADPGDFDQLTQCLIQAPSNRPYFLLLQGYQDAQDFVVYVMTREQHVFGRGGNSSGRGGSPAPYVDTFLNAPDILPRHCTVRAGPEHPAMVRPSRGAPVTHNGCLLLREAELHPGDLLGLGEHFLFMYKDPRTGGSGPARPPWLPARPGATPPGPGWAFSCRLCGRGLQERGEALAAYLDGREPVLRFRPR
B2: human Rap1 isoform Rap1B (residues 1–167), GMP-PNP-bound (natural protein, UniProt P61224 1-167, looked up)
chain: MREYKLVVLGSGGVGKSALTVQFVQGIFVEKYDPTIEDSYRKQVEVDAQQCMLEILDTAGTEQFTAMRDLYMKNGQGFALVYSITAQSTFNDLQDLREQILRVKDTDDVPMILVGNKCDLEDERVVGKEQGQNLARQWNNCAFLESSAKSKINVNEIFYDLVRQINR
notes: Rap1B, human, residues 1-167; Loaded with GMP-PNP; expression and purification as in Gingras et al., 2013; source: Escherichia coli strain CK600K (pTAC vector), purified, nucleotide exchanged for GMP-PNP
B3: recombinant Rasip1 RA domain (residues 134-285) (domain or fragment, human, UniProt Q5U651 134-285, looked up)
chain: EPPLATRATAPPGVLKIFGAGLASGANYKSVLATARSTARELVAEALERYGLAGSPGGGPGESSCVDAFALCDALGRPAAAGVGSGEWRAEHLRVLGDSERPLLVQELWRARPGWARRFELRGREEARRLEQEAFGAADSEGTGAPSWRPQK
notes: Rasip1, human, Ras-association (RA) domain residues 134-285; Cloned into pETM-11; also called Rasip1 RA domain wild-type; Rasip1 wild-type
B4: recombinant Rasip1 RA domain (residues 134-285) R182E (domain or fragment, human, UniProt Q5U651 134-285, looked up)
chain: B3 chain with R49E
notes: Rasip1, human, RA domain residues 134-285 with R182E; also called Rasip1(R182E); Rasip1 RA domain (R182E)

Numbering of substitutions follows the chain as printed. Names may count otherwise.

Series [1] deals with T1, αIIb integrin cytoplasmic tail (Homo sapiens (Human), UniProt P08514, biotin on the in vivo biotinylation peptide tag).
T1 chain: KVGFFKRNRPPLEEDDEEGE
In words: pull-down (NeutrAvidin bead-immobilised tail peptide, Coomassie-stained SDS-PAGE).

Series [2] deals with B3. In words: ITC; VP-ITC at 25°C; 335 μM GMP-PNP-bound Rap1B from the syringe into 30 μM Rasip1 RA domain (monomer concentration) in the cell; 20 mM Sodium Phosphate, 200 mM NaCl, 3 mM MgCl2, pH 6.5, 0.1 mM GMP-PNP; single-site fit. Conditions: both partners purified. (Isothermal titration calorimetry measures the heat released or taken up as one component is titrated into another.)

Series [3] addresses B2. Described as above. Conditions: both partners purified.
Series [4] concerns the molecule itself. As to the kind of experiment: SEC; Rasip1 RA domain alone (50 μM) on Superdex-75 (10/300); apparent mass against calculated monomer mass 16.3 kDa.

B1: the binding result in series [1] is “no binding”.
One may read the stoichiometry N as a count of units in the complex or per binding partner. Consider B2, for which the “stoichiometry N” value in series [2] was 2 Rap1 monomers per Rasip1 dimer.
For orientation: Kd means the constant that tells how readily two partners part at equilibrium. Low readings indicate higher affinity, high ones lower affinity. With B3, the Kd in series [3] was found to be 770 ± 90 nM. Further, the “stoichiometry N” value in series [4] was 2.
Turning to B4, the binding result in series [4] is reported as “binds”.
